Source: publication PMC10367113 (Nature chemical biology, 2022)

Molecular target: the molecule itself
Experiment: cryo-EM structure

Protein | stoichiometry N
Bl_Man38B, GH38 α-mannosidase from Bifidobacterium longum NCC2705 (enzyme) MFLLPNQQLERCDRVMQQRVKPHIHTTLAACTLRSFHNPGEPVPSSEFLAKVRNGQVPFEPFRVPGVWGTTWGTTWFEVNGHIDMAAVKGRKVELMVDLGWLDHRGPGFQSEGLVYRADGTAIKSANPRNHWIPLVYADGSSTVELDEHGDFTVYIEAAANPFVEGPTPFSPTELGEEATGTCDFPYTLSRMDITIFNEDVFAYDMDLETVSSLIRELKDDDPRYWQLAKALQRSLNIYDERDLETVPAARAALAGVLAEPAASSAINHIAIGHAHIDSAWLWPVRETRRKVARTVSNVLALMDEDPDFTYAMSSAQQYAWLEEEHPDLFARMKRRIEEGRFIPVGGMWVESDNMIPSGESLVRQITFGRRYFKEHLGVTPRGIWLPDSFGYAGSWPQIARRAGFDWFLTQKISWNDTTKFPHHSFMWEGIDGTRILTHFPPSDTYCSSMSMRELMYSQRNFLDKDLSRNAILLYGFGDGGGGPTREMTARIRRDHDLAGAPKIDFGTPDQLFDRVRKDIVDDARGETPVFHGELYLELHRGTLTAQQDMKRGCRQEESMLRVVEYLCAVASIKNPGYVYPREELDRIWKTLLLNQFHDILPGSAIAWVHRQAREEYARDIAHLRDIAAAAGQAVKEAEPGIATVKHAVIAPYASNPQYSWAVRDGGGTAVEESVIPVSVERGGNAIILDNGRLRVRIEADGTVSSLIDLALRRELVPSGVRMGRYELLKDEPFHWDAWDIQRDAFLAADTLTDAMVEHVEDMPDGSAAIHVVTRARGVEIHTVITLRPGSGSLDFTADVNWHAVEKFLKVDMPVTVQAVNAQYECQYGLVERPINKNTRSDDAKFESCTHRFVRIADADYAAAVVNASTYGSDVSPIHAAAAHGAGRGTMVRLSLLSAPLYPDPRTDQGEHFFAWSLVAGAGMESVLAEASRLNAPIMGELPAVRPLATLTDVAGTPVLDWVKLADDGSGDLIVRLYEAAGGDAKATLRLDDTFAGCTVEEVNLMEEPVLADDLPRALVAGGPVPAEGASVSFTPFQIVTLRIRR | 4
Bl_Man38A, GH38 α-mannosidase from Bifidobacterium longum NCC2705 (enzyme) MFLKPEQQLERCRRIVRQRVDPHIHPSIAQLTVESYDIPGEPMPSDEFFAKLDRGDIDFKPFMLGSEWGTTWGTVWFRLTGTVPAGYPKGKPLELILDLGWYPHSCGGHIEGLVYRADGTAIKAVHPLNYWVPFMDAEGNAQVPVAEDGSFTLYLEAASNPLLLGVPPFIETELGDHATGKPDEPYVFKSADLAEFDERYENYSVDLDVVSSLMEFADKQSPRYWQLAKALQRSLNAYDERNPESVEAARAVLAGVLAKPANASAMNVSAIGHAHIDSAWLWPVRETRRKVARTVSNALALMDADPDFKYAMSSAQQYAWLEEDHPDIFKRMKRRIEEGRFIPVGGMWVEADGMLPAGESLIRQIAYGRKYFKEHLGVEPKGVWLPDSFGYTGAWPQIARRAGYEWFLTQKISWNDTTKFPHHSFMWEGIDGSRIFTHFPPADTYAAWCKVQELDYAEKNFQDKDLSDRSLLLFGFGDGGGGPTRNMMEHLHRYENLEGVSKVSIEEPNDFFDKAHQQLAENAGPEMPVWKGELYLELHRGTLTSQQDMKRGCRQEESLLRTVEYLGAAAVLSDPEYVYPREELDRIWKTLLLNQFHDILPGSAIAWVHREAREDYRRDLKRLAEIAQDMCAVLRKANPQADLLAEARISQFRNDGASWHANRINEPTDALSVLTQTLDNGRVLLANGVLSVTIEADGTISSLLDEEHGRELVPAGTRLGQYELLRDEPAVWDAWEIERESLLMANAVTGSIESVNTENGAAQVHVHTADGDTVITTTITLRPGSHTLDFHADIDWHERERFLKVDLPLGIVADQATYDCQYGLIRRPIVKNTASDEAKYESSTNRFAIIGDAGYAAAVINGSVYGSDASPIAGNAAEGRDSGTMFRLSLLSAPTFPDPRTDIGSHEFDWSVVADATVDRALDAAGVLNAPVLHDVPDITPLASIESVNGTVVLDWMKLADDGSGDLIVRAYEAAGGQADAMLHVCPALAGASVHETNVLEGDDLAADLPVALQDGRQNAEGATLHFGPFQLATLRITR | 4
